Experimental data published in US20030180282A1, “Method of treatment of thrombotic events” (priority 2002, published 2003).

Key:
[1] = test system: platelets; experiment: platelet aggregation in platelet-rich plasma of AMI patients during first 24 hours after r-PA or t-PA; type: in vivo, human; settings: 3, 6, 12, 24 hours; r-PA: all agonists except ristocetin
Source text: Twenty-three consecutive patients admitted to the emergency rooms of St. Agnes Hospital, or the Union Memorial Hospital between July and December of 1996 with a diagnosis of acute myocardial infarction were included. All patients were enrolled in the randomized trial of Reteplase (r-PA) versus accelerated Alteplase (t-PA) for the treatment of acute myocardial infarction, (GUSTO-III trial). […]
The schedule of blood drawing, sample preparation and processing were critical issues of the study design, and were monitored by an independent observer. […]
Citrate and whole blood were immediately mixed 1:9 and then centrifuged at 1200 g for 2.5 minutes in order to obtain platelet-rich plasma (PRP) which was kept at room temperature for use within 1 hour. Platelet counts were determined for each PRP sample with Coulter Counter ZM (Coulter Co., Hialeah, Fla.). […] PA was expressed as the maximum percentage of light transmittance change from the baseline using platelet-poor plasma as a reference at the end of the recording time. PA curves were recorded for 4 minutes and analyzed according to internationally established standards (see, e.g. Ruggeri, Z. M. (1994) Semin. Hemat. 31:229-239). […]

[2] = test system: platelets; experiment: in vitro comparison of TNK versus t-PA on platelet activation and surface receptor expression (15 parameters); type: cell-based, human; settings: TNK 12 μg/mL, t-PA 4 μg/mL, 30 minutes
Procedure: Blood samples for the in vitro study were obtained from 9 healthy volunteers. None of the subjects smoked or had hypertension, diabetes, or an abnormal hematocrit. None had received aspirin or any other antiplatelet drugs. All subjects underwent blood sampling after at least 30 minutes of rest and 2 or more hours of fasting. Blood was drawn from an antecubital vein between 8 am and 10 am in order to avoid any diurnal influence. A 21-gauge butterfly needle was used to draw blood into a tube containing 3.8% sodium citrate (1:9 volume); the first 1.5 mL of free running blood was discarded. One tube was kept as an internal control. A second tube was incubated with tenecteplase (TNK) for 30 minutes at room temperature in order to achieve a final concentration of 12 μg/mL. […]
For the platelet aggregation (PA) studies, platelet-rich plasma (PRP) was first isolated. […] Platelet counts were determined for each PRP sample with a Coulter Counter ZM (Coulter Co., Hialeah, Fla.). […] Platelet aggregation was determined by using a 4 channel Chrono-log Lumi-Aggregometer (model 560-Ca) and expressed as the maximum percentage of light transmittance change (% max) from the baseline at the end of the recording time. […] Platelet aggregability curves were recorded for 6 minutes and analyzed according to internationally established standards (see, e.g., Ruggeri, Z. M. (1994) Semin. Hemat. 31:229-239). […]

B1: t-PA: recombinant tissue plasminogen activator, thrombolytic agent (Genentech) (protein, UniProt P00750 36-562, looked up)
Tissue-type plasminogen …: SYQVICRDEKTQMIYQQHQSWLRPVLRSNRVEYCWCNSGRAQCHSVPVKSCSEPRCFNGGTCQQALYFSDFVCQCPEGFAGKCCEIDTRATCYEDQGISYRGTWSTAESGAECTNWNSSALAQKPYSGRRPDAIRLGLGNHNYCRNPDRDSKPWCYVFKAGKYSSEFCSTPACSEGNSDCYFGNGSAYRGTHSLTESGASCLPWNSMILIGKVYTAQNPSAQALGLGKHNYCRNPDGDAKPWCHVLKNRRLTWEYCDVPSCSTCGLRQYSQPQFRIKGGLFADIASHPWQAAIFAKHRRSPGERFLCGGILISSCWILSAAHCFQERFPPHHLTVILGRTYRVVPGEEEQKFEVEKYIVHKEFDDDTYDNDIALLQLKSDSSRCAQESSVVRTVCLPPADLQLPDWTECELSGYGKHEALSPFYSERLKEAHVRLYPSSRCTSQHLLNRTVTDNMLCAGDTRSGGPQANLHDACQGDSGGPLVCLNDGRMTLVGIISWGLGCGQKDVPGVYTKVTNYLDWIRDNMRP
platelet aggregation, change between baseline and other time points [1]: no statistically significant differences | platelet function, 10 of 15 parameters, compared with baseline DPBS values [2]: diminished platelet function
